Test results reported in the supplement of paper PMC9170038.

Test system: MS2 coat protein
Test: apparent KD of MS2 coat protein; designed switch direction (-1 OFF switch, 1 ON switch): -1; higher = weaker reporter binding
Method in brief: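 Designed RNA switches with common flanks were made on Illumina chips by stalled E. coli RNA polymerase. Titration with SNAP-549-labelled MS2 coat protein doubled from 0.7 or 1.5 nM up to 3 µM. Apparent KD is each design's median over clusters after curve-fitting normalised fluorescence.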

[1] = input ligand: microRNA oligo, concentration not stated
[2] = Eterna round: R95, input ligand: microRNA oligo, concentration not stated
[3] = Eterna round: R95, input ligand: FMN 200 uM
[4] = Eterna round: R95, input ligand: none

Sequence | apparent KD of MS2 coat protein (input ligand: FMN 200 uM) [nM] | apparent KD of MS2 coat protein (input ligand: none) [nM] | apparent KD of MS2 coat protein [1] [nM] | apparent KD of MS2 coat protein [2] [nM] | apparent KD of MS2 coat protein [3] [nM] | apparent KD of MS2 coat protein [4] [nM]
ACUGUGACGUAGGAUAUCUCCUAAUUGCGCCGGAGAGAAGGACGUACAUGAGGAUCACCCAUGUGCCCUCGGAA [EX6 B.13] (Eterna round: R97, puzzle: Exclusion 6) | 300 | 56.4 |  |  |  | 
AAAACACAUGAGGAUCACCCAUGUGAGGAUAUGCUAUGGAAAAUAAAAAUAAAACAUAGCAGAAGGCACAAAGG [Denovo 18] (Eterna round: R96, puzzle: Exclusion 1) |  |  | 54 |  |  | 
ACCUCACAUGAGGAUCACCCAUGUCAGGAUAUCUUUUAUUGCAGCAAUCCUGUCGCUGAGAGAAGGGACAUUAA [EX1 #26] (Eterna round: R97, puzzle: Exclusion 1) | 30.7 | 26.5 |  |  |  | 
UUCUUACGAGGAUAUCGAUGGUGGAACAUGAGGAUCACCCAUGUAUGAGAUAUUGUAUUUCGAGAAGGCGUUCAGU [JR_E5_Sub058] (puzzle: Exclusion 5) |  |  |  | 51.6 |  | 
CGGUGCUGAGGAUAUACAUGAGGAUCACCCAUGUGUUCCGGCUAGCUGACUGGCGCUUGUAGAAGGCAGUACUG [JL-ex3-2.11 Brourd mod] (puzzle: Exclusion 3) |  |  |  | 16.3 |  | 
AAUUAUUUAUGAGGAUAUUGUGGUGAAACACCACAAGAAGGCAUGAUACACAUGAGGAUCACCCAUGUGAGCCUGAUGCAUAUA [Ex NG1 #58] (Eterna round: R96, puzzle: Exclusion NG 1) |  |  | 13.5 |  |  | 
UAGAUGGCUCAGGAUAUUUGCCAACUAACCCGCAAAGAAGGGAGCACAUGAGGAUCACCCAUGUGAUCGAACAA [Xeortibeza] (puzzle: Exclusion 6) |  |  |  | 22.6 | 114 | 26.1
CACGAAUUGUGAGGAUAUGUGCGACAAAGUUGCACAGAAGGCACAUGAGGAUCACCCAUGUAAGCUAGGUCGAAAGACCUAGCG [Omei Exc(NG)1 Av1] (Eterna round: R96, puzzle: Exclusion NG 1) | 215 | 56.4 | 22.7 |  |  | 
CUCCUCAUGGCGCCUAAACACAUGAGGAUCACCCAUGUACAGGCUUUUUGCCGUCUUAUAAUAAAACCGAGGAUACG [Raaen] (puzzle: Sensor v3, turn-off variant 1) |  |  |  | 167 | 76.3 | 149
UCGGCGCGAGGAUAUGCGGUUCCUCCCUCGGGCCGGAGCGUACAUGAGGAUCACCCAUGUAGAAGGCGCGCCGC [Apr-15 SS2-36] (puzzle: Exclusion 2) |  |  |  | 11.7 |  | 
UGCAGACGAGGAUAUAAACGAUAUAACAUGAGGAUCACCCAUGUACGAUCGAAUGAUCGUUUAGAAGGCGUCUGCU [E5/10-A3] (Eterna round: R97, puzzle: Exclusion 5) | 16.1 | 16.2 |  |  |  | 
AACCGUCGUCAGGAUAUUUGCCAGGAUUCUAGCGAAGAAGGGACGACAUGAGGAUCACCCAUGUUGGCCACUCG [EX6 B.26] (Eterna round: R97, puzzle: Exclusion 6) | 188 | 36.9 |  |  |  | 
GAUUGACAUGAGGAUCACCCAUGUGAGGAUAUCGGCUGGACCGUGUUGGCCUGCCUCUCGAGAAGGCGCAUAGG [Exclusion 1 V53] (puzzle: Exclusion 1) |  |  |  | 35.6 | 49.9 | 40.5
CGAAGUAGAAACCGAUCCUACAUGAGGAUCACCCAUGUAGCAAGACGUGCACGCGAAGCUCGUCAGACUACCAGAAC [salish99_TOv1_r3_013] (puzzle: Sensor v3, turn-off variant 1) |  |  |  | 332 | 312 | 420
UUUGCAAGCUAAAGAUCCCACAUGAGGAUCACCCAUGUUGCUGCCGUGAGGUAGCAUUUAACUUUUGCUCGUCUUAU [JL TOV1 3.49] (Eterna round: R97, puzzle: Sensor, turn-off variant 1) | 282 | 300 |  |  |  | 
CGGUGCUCGUGGAAACAUGAGGAUCACCCAUGUUGAGUUAGCGAGGAUAUCGGUAACACAUAUCACGAGAAGGCGCGAACCAGA [Ex NG3 #31] (Eterna round: R96, puzzle: Exclusion NG 3) | 23.3 | 16 | 11.9 |  |  | 
UUUUUGUGAGGAUAUCAGUAGUAAAUAAAUAAAAUUACUACUGAGAAGGCACAUGAGGAUCACCCAUGUUUUUU [Mat - Exclusion 4 - Mod of Salish - D68] (puzzle: Exclusion 4) |  |  |  | 41.8 |  | 

Sequence | apparent KD of MS2 coat protein (input ligand: FMN 200 uM) [nM] | apparent KD of MS2 coat protein (input ligand: none) [nM] | apparent KD of MS2 coat protein [1] [nM] | apparent KD of MS2 coat protein [2] [nM] | apparent KD of MS2 coat protein [3] [nM] | apparent KD of MS2 coat protein [4] [nM]
GAAUAGCGAGGAUAUGCAAUGAAGAUCGUACGAUAUGGCUGACAUGAGGAUCACCCAUGUAGAAGGCGCUGAUC [EX2 #14] (Eterna round: R97, puzzle: Exclusion 2) | 55.1 | 53.7 |  |  |  | 
GAUAGAGAGCAGGAUAUCUUAGAAAUGUAUUAUAGAGAAGGGCUCACAUGAGGAUCACCCAUGUGGUCCUAGAU [JL Dibiri mod 15] (puzzle: Exclusion 6) |  |  |  | 16 |  | 
CCAGGCGUCUUUGCUCGUCUUAUUUGGAGAUGACUGUUAACAUGAGGAUCACCCAUGUGUGUGGGAGCGUUGCAGUC [JR_SV3TOV2_Sub021] (puzzle: Sensor v3, turn-off variant 2) |  |  |  | 431 | 580 | 885
UAGAAACAUGAGGAUCACCCAUGUGAGGAUAUGAAAAAGAAAAGAAAAGAAAGAAGAAUCAGAAGGCACAAAGA [salish99-ex1_r3_083] (puzzle: Exclusion 1) |  |  |  | 25.9 | 33.6 | 23.6
AACCUGAGGCAUAGCUUUAGGUUUACAUGAGGAUCACCCAUGUAGGAUAUGGUAGGCAUAGCUUACCAGAAGGACAUGAAAAUU [Mat - Exclusion NG 3 - Mod of JL - D30] (Eterna round: R96, puzzle: Exclusion NG 3) | 417 | 55.6 | 47.9 |  |  | 
GGUGUGGCAGGAUAUACAUCGAAGGGUGCAAAGGGCUCGGCACAUGAGGAUCACCCAUGUAGAAGGGCCUACCA [Beated] (Eterna round: R96, puzzle: Exclusion 2) | 25.3 | 15.6 | 13.6 |  |  | 
CGUACUAACACGAAAGUGUUAGUACAAUAAGCUUGUGAAACAUGAGGAUCACCCAUGUCCUCAUAAGCUCGUCUUAG [salish99_TOv2_r3_008] (puzzle: Sensor v3, turn-off variant 2) |  |  |  | 388 | 17.1 | 14.5
CGGUGACAUGAGGAUCACCCAUGUUAGGAUAUGACUUCGUACGCGAACAGGUAUGGAGUCAGAAGGAGCAUCCA [Eternabot (Original) Solution 45] (Eterna round: R97, puzzle: Exclusion 1) | 80.6 | 38.4 |  |  |  | 
CUGCUCCGUGUAGGAUAUGCGCGCACCCACCGCGCAGAAGGACAUGAGGAUCACCCAUGUAUGUUAUUAUCACGUGAGGCGCAG [Design 35] (Eterna round: R96, puzzle: Exclusion NG 1) | 29.6 | 19.2 | 13.6 |  |  | 
AAUAAUUUUUUUUUUUUACAAGCUUUUUGCUCGUCUUAUACAUGAGGAUCACCCAUGUGGGUGAAAGAUAGAUUGUC [JMF's solution 1] (puzzle: Sensor v3, turn-off variant 2) |  |  |  | 18.2 | 30.6 | 44.8
AGUUGUUGUUUCCGUUCUUACAUGAGGAUCACCCAUGUUUCUUGUCGUGCUCGCGUUGCUCGUCAGACUACCUGUUG [salish99_TOv1_r3_064] (puzzle: Sensor v3, turn-off variant 1) |  |  |  | 106 | 87.1 | 138
ACAAAGGGAGUCAGGAUAUCGGACGUAAGUCAAGACGAGAAGGGACAUGAGGAUCACCCAUGUCAGCGGUGAAA [Exclusion 4 S1] (puzzle: Brourd's mod of Exclusion 4) |  |  |  | 18.7 | 42.5 | 17
CUGCUGAAGCUUUGCUUUAGUCGUACAUGAGGAUCACCCAUGUAGGAUAUGGUAGGCUUUGCUUACUAGAAGGAUAGAGUGAUC [salish99_ExNG3_r04_604] (Eterna round: R96, puzzle: Exclusion NG 3) | 72 | 61.9 | 82.4 |  |  | 
UGGUAACAUGAGGAUCACCCAUGUCAGGAUAUCAGGAAGAAGAGAGGAGAGGAGAAGAUGAGAAGGGACUAUAU [Excluse me! 11 - Jieux - Exclusion 1] (puzzle: Exclusion 1) |  |  |  | 19.8 | 21.6 | 26.2
CUAGUAUAUCAGGAUAUGAUUUUAUAUAGUGGAUCAGAAGGGAUAACAUGAGGAUCACCCAUGUUAAGGAGUGA [JR_Ex6_Sub041] (Eterna round: R97, puzzle: Exclusion 6) | 129 | 49.9 |  |  |  | 
CGAUGUGGAGUGAGGAUAUCGUGUUCGAAAGAACGUGAGAAGGCACAUGAGGAUCACCCAUGUGAUACAUGUCG [Omei Ex4B A16] (Eterna round: R97, puzzle: Brourd's mod of Exclusion 4) | 92.2 | 24.6 |  |  |  | 
AAUCCACAUGAGGAUCACCCAUGUGAGGAUAUGAUACUAUGUACUUCGGUACAUAGUAUCAGAAGGCACAUGAA [Ex1-3: 50] (puzzle: Exclusion 1) |  |  |  | 64.2 | 118 | 71.6
